Experimental data: patent US20200157151A1, “PEPTIDE COMPOUNDS, CONJUGATE COMPOUNDS AND USES THEREOF FOR TREATING INFLAMMATORY DISEASES” (TRANSFERT PLUS, S.E.C., priority 2017, published 2020)

Biological target: Human recombinant Sortilin chimera protein from R&D Systems (#3154-ST) (human) (UniProt Q99523)
Assay: SPR (Biacore), Sortilin immobilized on CM5 chip, ligand injected

Chain of Human recombinant Sortilin chimera protein from R&D Systems (#3154-ST) (human) (Q99523 78-755, change not shown): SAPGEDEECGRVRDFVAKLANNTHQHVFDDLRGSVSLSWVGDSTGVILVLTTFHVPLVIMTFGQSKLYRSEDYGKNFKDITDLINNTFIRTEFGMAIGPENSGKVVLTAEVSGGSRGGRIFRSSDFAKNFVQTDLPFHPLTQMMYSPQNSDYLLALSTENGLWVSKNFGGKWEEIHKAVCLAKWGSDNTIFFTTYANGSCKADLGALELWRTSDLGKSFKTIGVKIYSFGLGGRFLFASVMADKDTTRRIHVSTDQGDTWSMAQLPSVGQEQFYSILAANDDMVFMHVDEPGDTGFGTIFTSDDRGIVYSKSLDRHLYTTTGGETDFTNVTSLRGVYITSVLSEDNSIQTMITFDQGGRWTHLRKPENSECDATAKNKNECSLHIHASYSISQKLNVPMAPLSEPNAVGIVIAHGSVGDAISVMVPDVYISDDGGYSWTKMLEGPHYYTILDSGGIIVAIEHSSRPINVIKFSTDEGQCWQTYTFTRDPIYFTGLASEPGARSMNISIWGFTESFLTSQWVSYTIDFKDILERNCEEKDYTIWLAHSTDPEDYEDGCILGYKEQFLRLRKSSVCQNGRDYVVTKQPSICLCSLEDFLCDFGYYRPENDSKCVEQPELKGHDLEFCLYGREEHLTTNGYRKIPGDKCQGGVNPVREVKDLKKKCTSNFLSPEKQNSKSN

Neurotensin, P30990 151-163 (peptide; modification not given)
Kd: 117 nM

Receptor-Associated Protein (RAP) (ligand)
Kd: 4.2 nM
